This note sets out measurements from PMC4014126 (2014).

To fix the notation:
B1: Myc-tagged mouse IL-17RA [mouse] / NF-κB activator 1 (Act1) [mouse (endogenous in MEFs)] (parent complex)
chain 1: SPRLLDFPAPVCAQEGLSCRVKNSTCLDDSWIHPKNLTPSSPKNIYINLSVSSTQHGELVPVLHVEWTLQTDASILYLEGAELSVLQLNTNERLCVKFQFLSMLQHHRKRWRFSFSHFVVDPGQEYEVTVHHLPKPIPDGDPNHKSKIIFVPDCEDSKMKMTTSCVSSGSLWDPNITVETLDTQHLRVDFTLWNESTPYQVLLESFSDSENHSCFDVVKQIFAPRQEEFHQRANVTFTLSKFHWCCHHHVQVQPFFSSCLNDCLRHAVTVPCPVISNTTVPKPVADYIPLWVYGLITLIAILLVGSVIVLIICMTWRLSGADQEKHGDDSKINGILPVADLTPPPLRPRKVWIVYSADHPLYVEVVLKFAQFLITACGTEVALDLLEEQVISEVGVMTWVSRQKQEMVESNSKIIILCSRGTQAKWKAILGWAEPAVQLRCDHWKPAGDLFTAAMNMILPDFKRPACFGTYVVCYFSGICSERDVPDLFNITSRYPLMDRFEEVYFRIQDLEMFEPGRMHHVRELTGDNYLQSPSGRQLKEAVLRFQEWQTQCPDWFERENLCLADGQDLPSLDEEVFEDPLLPPGGGIVKQQPLVRELPSDGCLVVDVCVSEEESRMAKLDPQLWPQRELVAHTLQSMVLPAEQVPAAHVVEPLHLPDGSGAAAQLPMTEDSEACPLLGVQRNSILCLPVDSDDLPLCSTPMMSPDHLQGDAREQLESLMLSVLQQSLSGQPLESWPRPEVVLEGCTPSEEEQRQSVQSDQGYISRSSPQPPEWLTEEEELELGEPVESLSPEELRSLRKLQRQLFFWELEKNPGWNSLEPRRPTPEEQNPS
chain 2: MNRSIPVEVDESEPFPSQLLKPIPEYSPEEELEPPAPNTRNMAPSSLSVLQCPPLKLANHQPVSQQVTCLRAKVLEEGEASFFRRHPELGKDISSCSSGASEPESELGALPPEHRFTLTEKRNRWLGSQLSAASPDTGHESDKSDPSLPNALADSFSGGQEMMPRPRPRPGPHRHRAAPDVPTIDTGYDSQPQDVLGIRQLERPLPLTSSCYLQDLPGPLRSRELPPQFELERYPMNAQLLPPHPSPQAPWNCQYYCPGGPYHHQVPHGHGYPPAAAYQQVLQPALPGQVLPGARARGPRPVQKVILNDSSPQDQEERPAQRDFSFPRLPRDQLYRPPSNGVEAPEESLDLPAELRPHGPQAPSLAAVPRPPSNPLARGTLRTSNLPEELRKVFITYSMDTAMEVVKFVNFLLVNGFQTAIDIFEDRIRGIDIIKWMERYLRDKTVMIIVAISPKYKQDVEGAESQLDEDEHGLHTKYIHRMMQIEFISQGSMNFRFIPVLFPNAKKEHVPTWLQNTHVYSWPKNKKNILLRLLREEEYVAPPRGPLPTLQVVPL

The assay covers variants of B1. Description: co-immunoprecipitation (anti-Myc IP, Western blot, ImageJ densitometry); IL-17RA-deficient MEFs reconstituted by retroviral infection; treated with IL-17 for 10 min; parent: 100.
As to chain 1 E388A, chain 1 Q389A, chain 1 E393A, the percent of parent was 107.

With chain 1 R420A, chain 1 Q423A, chain 1 K427A, the percent of parent came out at 107.

Take chain 1 V396A, chain 1 M397A: the percent of parent turned out to be 98.

As to chain 1 I429A, chain 1 L430A, the percent of parent came out at 102.
